Reference: article PMC11696677 (Communications Biology, 2025)
Like-named read-outs stand apart in the source and are kept apart here.

B2: Kapβ2_(W460A:W730A) (receptor, human, UniProt Q92973-2 1-890, looked up)
chain: MEYEWKPDEQGLQQILQLLKESQSPDTTIQRTVQQKLEQLNQYPDFNNYLIFVLTKLKSEDEPTRSLSGLILKNNVKAHFQNFPNGVTDFIKSECLNNIGDSSPLIRATVGILITTIASKGELQNWPDLLPKLCSLLDSEDYNTCEGAFGALQKICEDSAEILDSDVLDRPLNIMIPKFLQFFKHSSPKIRSHAVACVNQFIISRTQALMLHIDSFIENLFALAGDEEPEVRKNVCRALVMLLEVRMDRLLPHMHNIVEYMLQRTQDQDENVALEACEFWLTLAEQPICKDVLVRHLPKLIPVLVNGMKYSDIDIILLKGDVEEDETIPDSEQDIRPRFHRSRTVAQQHDEDGIEEEDDDDDEIDDDDTISDWNLRKCSAAALDVLANVYRDELLPHILPLLKELLFHHEWVVKESGILVLGAIAEGCMQGMIPYLPELIPHLIQCLSDKKALVRSITCATLSRYAHWVVSQPPDTYLKPLMTELLKRILDSNKRVQEAACSAFATLEEEACTELVPYLAYILDTLVFAFSKYQHKNLLILYDAIGTLADSVGHHLNKPEYIQMLMPPLIQKWNMLKDEDKDLFPLLECLSSVATALQSGFLPYCEPVYQRCVNLVQKTLAQAMLNNAQPDQYEAPDKDFMIVALDLLSGLAEGLGGNIEQLVARSNILTLMYQCMQDKMPEVRQSSFALLGDLTKACFQHVKPCIADFMPILGTNLNPEFISVCNNATAAIGEISIQMGIEMQPYIPMVLHQLVEIINRPNTPKTLLENTAITIGRLGYVCPQEVAPMLQQFIRPWCTSLRNIRDNEEKDSAFRGICTMISVNPSGVIQDFIFFCDAVASWINPKDDLRDMFCKILHGFKNQVGDENWRRFSDQFPLPLKERLAAFYGV

How the values were obtained:
Assay in all cases: fluorescence polarisation
WT Kapβ2 = biological target: T1, WT Kapβ2 (human, UniProt Q92973-2 1-890)
T1 sequence (looked up): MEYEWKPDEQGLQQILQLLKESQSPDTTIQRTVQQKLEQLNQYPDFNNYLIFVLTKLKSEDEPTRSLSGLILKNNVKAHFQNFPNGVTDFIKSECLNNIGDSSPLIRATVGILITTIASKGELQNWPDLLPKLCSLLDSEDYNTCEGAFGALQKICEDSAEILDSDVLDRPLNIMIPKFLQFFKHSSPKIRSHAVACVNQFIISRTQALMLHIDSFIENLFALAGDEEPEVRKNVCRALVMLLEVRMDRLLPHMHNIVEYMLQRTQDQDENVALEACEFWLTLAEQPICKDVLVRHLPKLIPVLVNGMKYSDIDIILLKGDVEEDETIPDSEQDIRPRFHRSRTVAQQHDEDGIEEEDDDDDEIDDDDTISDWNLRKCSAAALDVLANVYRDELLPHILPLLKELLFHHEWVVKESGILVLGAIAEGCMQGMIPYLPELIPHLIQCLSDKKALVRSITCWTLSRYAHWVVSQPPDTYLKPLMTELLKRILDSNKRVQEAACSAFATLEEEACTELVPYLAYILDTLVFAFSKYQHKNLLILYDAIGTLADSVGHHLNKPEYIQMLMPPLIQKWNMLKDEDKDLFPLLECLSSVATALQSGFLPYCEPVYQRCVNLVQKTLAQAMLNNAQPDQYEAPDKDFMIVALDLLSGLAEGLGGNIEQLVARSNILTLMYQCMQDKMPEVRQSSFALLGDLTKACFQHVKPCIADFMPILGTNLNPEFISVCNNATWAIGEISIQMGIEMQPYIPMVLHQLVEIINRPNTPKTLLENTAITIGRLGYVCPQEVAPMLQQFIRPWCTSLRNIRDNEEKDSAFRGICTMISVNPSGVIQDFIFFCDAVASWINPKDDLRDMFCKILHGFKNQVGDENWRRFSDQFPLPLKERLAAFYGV

Kapβ2_(W460A:W730A) = biological target: B2
TAMRA-(PR)20 [1] = biological target: T2, TAMRA-(PR)20 (TAMRA label (position not given))
T2 peptide: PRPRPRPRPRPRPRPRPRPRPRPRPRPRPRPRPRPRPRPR

TAMRA-(GR)20 [2] = biological target: T3, TAMRA-(GR)20 (TAMRA label (position not given))
T3 peptide: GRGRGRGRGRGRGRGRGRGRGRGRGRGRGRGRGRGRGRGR

TAMRA-(PR)20 [3] = biological target: T2, TAMRA-(PR)20
TAMRA-(GR)20 [4] = biological target: T3, TAMRA-(GR)20

B1: FUS-GFP (natural protein, UniProt P35637 1-526, looked up)
chain: MASNDYTQQATQSYGAYPTQPGQGYSQQSSQPYGQQSYSGYSQSTDTSGYGQSSYSSYGQSQNTGYGTQSTPQGYGSTGGYGSSQSSQSSYGQQSSYPGYGQQPAPSSTSGSYGSSSQSSSYGQPQSGSYSQQPSYGGQQQSYGQQQSYNPPQGYGQQNQYNSSSGGGGGGGGGGNYGQDQSSMSSGGGSGGGYGNQDQSGGGGSGGYGQQDRGGRGRGGSGGGGGGGGGGYNRSSGGYEPRGRGGGRGGRGGMGGSDRGGFNKFGGPRDQGSRHDSEQDNSDNNTIFVQGLGENVTIESVADYFKQIGIIKTNKKTGQPMINLYTDRETGKLKGEATVSFDDPPSAKAAIDWFDGKEFSGNPIKVSFATRRADFNRGGGNGRGGRGRGGPMGRGGYGGGGSGGGGRGGFPSGGGGGGGQQRAGDWKCPNPTCENMNFSWRNECNQCKAPKPDGPGGGPGGSHMGGNYGDDRRGGRGGYDRGGYRGRGGDRGGFRGGRGGGDRGGFGPGKMDSRGEHRQDRRERPY
With B1 the Kd (WT Kapβ2) was 39.6 ± 17.7 nM and the Kd (Kapβ2_(W460A:W730A)) was 124 ± 58.5 nM.

B2 was tested, and the “affinity relative to that of FUS for Kapβ2_(W460A:W730A)” value (from here on “affinity relative to that of FUS”) (TAMRA-(PR)20 [1]) was about 3 times, the “affinity relative to that of FUS” value (TAMRA-(GR)20 [2]) was about 3 times and the “affinity relative to that of FUS” value (TAMRA-(PR)20 [3]) was about 1.5 times. For the same binder, the “affinity relative to that of FUS” value (TAMRA-(GR)20 [4]) was about 1.5 times.
